Source: the nanobody polyreactivity screen of Harvey et al. (2022)

Experiment: yeast display, Sf9 membrane polyspecificity reagent, FACS + sequencing; frameworks hold sequencing errors
Method in brief: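 Nanobodies from a synthetic yeast display library (Saccharomyces cerevisiae BJ5465), induced 36–48 hours with galactose, were stained 1 hour at 4 °C with 10% biotinylated, detergent-solubilized Sf9 membrane reagent, enriched on streptavidin microbeads, then FACS-sorted. Anti-HA (expression) and streptavidin (reagent binding) fluorescence set low and high (top ~1%) gates. Polyreactivity labels come from the gate of origin. Genes were colony-PCR amplified, MiSeq 2 × 250 sequenced and filtered by CDR length.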

Row | Sequence | polyreactivity (PSR sort gate)
1 | QVQLQESASGLVQAGGSLRLSCAASGAIFPAYLMGWYRQAPGKERELVAGISYGSITYCADSVKGRFNISRDNAKNTVYLQMNSLKPEDTAVYYCAKDIGVRRRDYEDYEYWGQGTQVTVSS | low polyreactivity
2 | QVQLVESGGGLVQAGGSLRLSCAGSGRIFGGYAMGWYRQAPGTERELVAAISRRGGSTYYADSVKGRFTISRDNAKNTVYLQMNSLKPEDTAVYYCARDYGGVGAPGSAGAYDYWGQGTQVTVSS | high polyreactivity
3 | QVQLVESGGGLVQAGGSLRLSCAASGFTFAGNAMGWYRQAPGKERELVAGISRRGGNTYYADSVKGRFTISRDNAKNTVYLQMISLKPEDTAVYYCAARARRRYYYWGQGTQVTVSS | high polyreactivity
4 | QVQLVESGGGLVQAGGSLRLSCAASGFIFRRYTMGWYRQAPGKERELVAAISWTGGSTYYADSVKGRFTISRDNAKNTVYLQINRLKPEDTAVYYCNAVLYTPVYDGFDSWGQGTQVTVSS | high polyreactivity
5 | QVQLVESGGGLFHAGGSLRLSCAASGSTFGGNDMGWSIQAPGKERELVASISDGGRTNYADSVKGRFTISRDNAKNTVYLQMNSLKPEDTAVYYCAADYAPVAFDYWGQGTQVTVSS | low polyreactivity
6 | QVQLVESGGGLVQAGGSLRLSCAASGSIFKSYAMGWYRQAPGKERELVAVISDSGSTYYADSVKGRFTISRDNAKNTVYLQKNSLKPEDTAVYYCRGRGRRNEYWGQGTQVTVSS | high polyreactivity
7 | QVQLVESGGGLVQAGGSLRLSCAASGRTFSIYTMGWYRQAPGKERELVASIRRSSGSTYYADSVKGRFTISRDNAKNTVYLQMNSLKPEDTAVYYCAADRIRLDSRKFDYWGQGTQVTVSS | low polyreactivity
8 | QVQLVESGGGLVQAGGSLRLSCAASGIIFYTYVMGWYRQAPGKEREFVAGISTSGGRTDYADSVKGRFTISRDNAKNTVYLQMNSLKPEDTAVYYCNADYWQWYSYWYDYWGQGTQVTVSS | high polyreactivity
9 | QDQHVESGGGLVQAGGSLRLICAASGLIFGYYAIGWYRLAPGKERELVAAITSDSSTNYADSVKGRFTISRDNAKNTVYLHMNSLKPVDTAVYYCAADIMTRRGYYYWGHGTQVTVSS | high polyreactivity
10 | QVQLVESGGGLVQAGGRLRLICAASGSTFVTNYMGWYRQAPGKERELVAAISSGTSTNYADSVKGRFTISRDNAKNSVYLPMNSLTPEDTAVYYCAADSLKRYDYWGQGTQVTVSS | low polyreactivity
11 | QVQLVESGGGLVQAGGSLRLSCAASGSIFPNGMGSYRQAPGKERELVATITSGGSTYYADSVKGRFTISRDNAKNTVYLQMNSLKPEETAVYYCADTVYGGYSGSGCNYWGKGTQVTVSS | low polyreactivity
12 | QVQLVESGGGLVQAGGSLRLSCAASGLIFPLYAMGWYRHAPGKERELVAAITSSGGSTYYADSVKGRFTISRDNAKNTVYLQMNSLKPEDTAVYYCAADYSVYWLDYGYWGQGTQVTVSS | low polyreactivity
13 | QVQLVDSGGRLLQAGGSLRLSCAASGRTFYYYAKGWYRQAPGKERELVASITSDGDTNYADSVKGRFTISGDNAKNTGYLQMNSLKPEDTAVYYCAAEWQTQGYEYWGQGTQVTVSS | high polyreactivity
14 | QVQLEESGGGLVQAGGSLSLSCAASGSSLDTYVMGWYRQAPGKEREVVAAISSDTSTNYADSVKGRFTISRDNAKNTVYLQMNSLNPEDTAVYYCAAVGSYYGWYQGFDYWGQGTLVTVSS | low polyreactivity
15 | QVQLVESGGGLVQAGGSLRLSCAASGRIFVVYAMGWYRQAPGKERELVAAITYGGGSTHYADSVKGRFTISRDNAMNTVYLQMISLKPEDTAVYYCAADLFYHSYGYEYWGQGTQVTVSS | low polyreactivity
16 | QVQLVESGGGLVQAGGSLRLSCAASGNIFGYYAMGWYRQAPGKERELVAAIRTRGGRTYYADSVKGRFTISRDNAKTTVYLQMNSLKPEDTAVYYGAARSIAGFWRYDYWGQGTQVTVSS | high polyreactivity
17 | QVHLVETGGGLVQAGGSLRLSCAASGFIFIWYALGGYRQAPGKERELVAAITSDGGRTYYADSVKGRFTISRDNAKNSVYFQMNSLKPEDTAVYYCYAVSSATKYEYWGQGTQVTVSS | high polyreactivity
